Data on 6 molecules can be found in patent US6713294B1, “DNA glycosylases and their use” (priority 1996, dated 2004).

Holding throughout (type): biochemical
Data set [1] has as its system [^3H]dUMP-labelled DNA. Nature of the data set: Release of uracil from ds or ss [3H]dUMP-labelled DNA. The note with it: 2 μM, 10 min, 37° C.; for U-ds, pmol excised per min per mg protein: double-stranded uracil DNA, 0 = below detection limit (10 pmol per mg protein per min); for U-ss, pmol excised per min per mg protein: single-stranded uracil DNA, 0 = below detection limit. Here is the method: (§1) To test enzymatic substrate specificities, 250 ng purified human “wild type” UDG (UNGΔ84), UNGΔ84Tyr147Ala or UNGΔ84Asn204Asp, were mixed with 200 ng ds- or ss-[^3H]cytosine-labelled DNA (150 mCi/mmol), or ds- or ss-[^3H]thymine-labelled DNA (100 mCi/mmol) in 10 mM NaCl, 20 mM Tris-HCl (pH 7.5), 1 mM EDTA, 1 mM dithiothreitol and 0.5 mg/ml bovine serum albumin (final concentrations) in 20 μl separate reactions. The final concentrations of the [^3H]cytosine-DNA (C) and [^3H]thymine-DNA (T) substrates were 6.5 μM and 10 μM, respectively. Release of radioactivity as a function of time was measured at 37° C. These conditions are later referred to as standard conditions. Substrate synthesis and processing of samples for scintillation counting were as described in Krokan and Wittwer (1981) Nucl. Acids Res., 9: 2599-2613. Single-stranded substrate was generated by boiling double-stranded substrate for 10 min, followed by rapid cooling on ice.
(§2) For measuring release of uracil from double-stranded (U-ds) or single-stranded (U-ss) DNA the various mutant enzymes (prepared as described in Example 1 and by analogous site-directed mutagenesis methods and identical expression and purification methods) were incubated with 200 ng ds- or ss-[^3H]dUMP-labelled DNA (500 mCi/mmol, 2 μM final concentration) in 20 μl separate reactions for 10 min under standard conditions as described in Example 1. For measuring release of [^3H]cytosine or [^3H]thymine, assays were performed as described in Example 1 using an incubation time of 10 min. Uracil inhibition was analysed by adding 5 mM uracil (final concentration) to a standard U-ds assay. 0 activity indicates activity below detection limit (10 pmol per mg protein per min) with 100 ng enzyme and 200 ng DNA substrate at standard conditions.

The subject of data set [2] is [^3H]cytosine-labelled DNA. Nature of the data set: Release of [3H]cytosine from ds or ss labelled DNA. The settings on record: 6.5 μM, 10 min, 0 = below detection limit; for C-ds, pmol excised per min per mg protein: double-stranded cytosine DNA; for C-ss, pmol excised per min per mg protein: single-stranded cytosine DNA. Here is the method: as §1, §2
For data set [3], the system named is [^3H]thymine-labelled DNA. Briefly: Release of [3H]thymine from ds or ss labelled DNA. The note with it: 10 μM, 10 min, 0 = below detection limit; for T-ds, pmol excised per min per mg protein: double-stranded thymine DNA; for T-ss, pmol excised per min per mg protein: single-stranded thymine DNA. Here is the method:
as §1, §2

Data set [4] has as its system [^3H]dUMP-labelled DNA. Nature of the data set: Uracil inhibition in standard U-ds assay. The note with it: 5 mM uracil added to standard U-ds assay. Here is the method: as §2
In data set [5] the test system is [^3H]dUMP-labelled DNA. Briefly: Kinetic parameters on uracil substrate. The settings on record: for Kcat: calculated from Vmax assuming Mr=25000. Here is the method:
The final concentrations of the [^3H]cytosine-DNA (C) and [^3H]thymine-DNA (T) substrates were 6.5 μM and 10 μM, respectively. Release of radioactivity as a function of time was measured at 37° C. These conditions are later referred to as standard conditions. Substrate synthesis and processing of samples for scintillation counting were as described in Krokan and Wittwer (1981) Nucl. Acids Res., 9: 2599-2613. Single-stranded substrate was generated by boiling double-stranded substrate for 10 min, followed by rapid cooling on ice.
The kinetic parameters were determined using six different substrate concentrations to obtain the Km and Vmax values. Duplicate samples were incubated for 20 min using standard assay buffer conditions and substrates as specified. Km and Vmax were calculated using the computer program Enzpack, version 3.0 after the method of Wilkinson (1961) Biochem. J., 80: 324-332.

B1: Tyr147Phe: human UDG (UNGΔ84) mutant with Tyr147 replaced by Phe (protein)
chain: MGVFCLGPWGLGRKLRTPGKGPLQLLSRLCGDHLQAIPAKKAPAGQEEPGTPPSSPLSAEQLDRIQRNKAAALLRLAARNVPVGFGESWKKHLSGEFGKPYFIKLMGFVAEERKHYTVYPPPHQVFTWTQMCDIKDVKVVILGQDPFHGPNQAHGLCFSVQRPVPPPPSLENIYKELSTDIEDFVHPGHGDLSGWAKQGVLLLNAVLTVRAHQANSHKERGWEQFTDAVVSWLNQNSNGLVFLLWGSYAQKKGSAIDRKRHHVLQTAHPSPLSVYRGFFGCRHFSKTNELLQKSGKKPIDWKEL
For the molecule B1, in data set [^3H]dUMP-labelled DNA [1], the “U-ds, pmol excised per min per mg protein” value (shortened to “U-ds, pmol excised per min”) is given as 3.2 × 10^7 pmol excised per min per mg protein and the “U-ss, pmol excised per min per mg protein” value (from here on “U-ss, pmol excised per min”) was 6.3 × 10^7 pmol excised per min per mg protein. Moreover, in data set [2], the “C-ds, pmol excised per min per mg protein” value (“C-ds, pmol excised per min” for short) is 0 pmol excised per min per mg protein and the “C-ss, pmol excised per min per mg protein” value (“C-ss, pmol excised per min” for short) is listed as 0 pmol excised per min per mg protein. In data set [3], the “T-ds, pmol excised per min per mg protein” value (“T-ds, pmol excised per min” for short) is 0 pmol excised per min per mg protein and the “T-ss, pmol excised per min per mg protein” value (“T-ss, pmol excised per min” for short) was 0 pmol excised per min per mg protein. In addition, the “Inhibition 5 mM Uracil” value in data set [^3H]dUMP-labelled DNA [4] is 50%. In data set [^3H]dUMP-labelled DNA [5] (U-ds substrate), the Km (as a rule, the substrate concentration at which the rate is half of its maximum) stood at 0.16 µM and the Kcat was 20.42 s⁻¹. In data set [^3H]dUMP-labelled DNA [5] (U-ss substrate), the Km came to 0.1 µM and the Kcat is 39.5 s⁻¹.

B2: Ser169Ala: human UDG (UNGΔ84) mutant with Ser169 replaced by Ala (protein)
chain: MGVFCLGPWGLGRKLRTPGKGPLQLLSRLCGDHLQAIPAKKAPAGQEEPGTPPSSPLSAEQLDRIQRNKAAALLRLAARNVPVGFGESWKKHLSGEFGKPYFIKLMGFVAEERKHYTVYPPPHQVFTWTQMCDIKDVKVVILGQDPYHGPNQAHGLCFSVQRPVPPPPALENIYKELSTDIEDFVHPGHGDLSGWAKQGVLLLNAVLTVRAHQANSHKERGWEQFTDAVVSWLNQNSNGLVFLLWGSYAQKKGSAIDRKRHHVLQTAHPSPLSVYRGFFGCRHFSKTNELLQKSGKKPIDWKEL
B2: in data set [^3H]dUMP-labelled DNA [1], the “U-ds, pmol excised per min” value is listed as 3.1 × 10^6 pmol excised per min per mg protein and the “U-ss, pmol excised per min” value was 5.6 × 10^6 pmol excised per min per mg protein. In addition, in data set [2], the “C-ds, pmol excised per min” value is 0 pmol excised per min per mg protein and the “C-ss, pmol excised per min” value is 0 pmol excised per min per mg protein. In data set [3], the “T-ds, pmol excised per min” value is given as 0 pmol excised per min per mg protein and the “T-ss, pmol excised per min” value is on record as 0 pmol excised per min per mg protein. In addition, the “Inhibition 5 mM Uracil” value in data set [^3H]dUMP-labelled DNA [4] is 80%.

B3: His268Leu: human UDG (UNGΔ84) mutant with His268 replaced by Leu (protein)
chain: MGVFCLGPWGLGRKLRTPGKGPLQLLSRLCGDHLQAIPAKKAPAGQEEPGTPPSSPLSAEQLDRIQRNKAAALLRLAARNVPVGFGESWKKHLSGEFGKPYFIKLMGFVAEERKHYTVYPPPHQVFTWTQMCDIKDVKVVILGQDPYHGPNQAHGLCFSVQRPVPPPPSLENIYKELSTDIEDFVHPGHGDLSGWAKQGVLLLNAVLTVRAHQANSHKERGWEQFTDAVVSWLNQNSNGLVFLLWGSYAQKKGSAIDRKRHHVLQTALPSPLSVYRGFFGCRHFSKTNELLQKSGKKPIDWKEL
As to B3, in data set [^3H]dUMP-labelled DNA [1], the “U-ds, pmol excised per min” value was 1.3 × 10^5 pmol excised per min per mg protein and the “U-ss, pmol excised per min” value is 2.6 × 10^5 pmol excised per min per mg protein. In addition, in data set [2], the “C-ds, pmol excised per min” value was 0 pmol excised per min per mg protein and the “C-ss, pmol excised per min” value was 0 pmol excised per min per mg protein. Also, in data set [3], the “T-ds, pmol excised per min” value is on record as 0 pmol excised per min per mg protein and the “T-ss, pmol excised per min” value is on record as 0 pmol excised per min per mg protein. Moreover, the “Inhibition 5 mM Uracil” value in data set [^3H]dUMP-labelled DNA [4] is 75%.

B4: Asp145Glu: human UDG (UNGΔ84) mutant with Asp145 replaced by Glu (protein)
chain: MGVFCLGPWGLGRKLRTPGKGPLQLLSRLCGDHLQAIPAKKAPAGQEEPGTPPSSPLSAEQLDRIQRNKAAALLRLAARNVPVGFGESWKKHLSGEFGKPYFIKLMGFVAEERKHYTVYPPPHQVFTWTQMCDIKDVKVVILGQEPYHGPNQAHGLCFSVQRPVPPPPSLENIYKELSTDIEDFVHPGHGDLSGWAKQGVLLLNAVLTVRAHQANSHKERGWEQFTDAVVSWLNQNSNGLVFLLWGSYAQKKGSAIDRKRHHVLQTAHPSPLSVYRGFFGCRHFSKTNELLQKSGKKPIDWKEL
As for B4, in data set [^3H]dUMP-labelled DNA [1], the “U-ds, pmol excised per min” value is 5.5 × 10^4 pmol excised per min per mg protein and the “U-ss, pmol excised per min” value is 8.5 × 10^4 pmol excised per min per mg protein. Moreover, in data set [2], the “C-ds, pmol excised per min” value is recorded as 0 pmol excised per min per mg protein and the “C-ss, pmol excised per min” value is on record as 0 pmol excised per min per mg protein. Also, in data set [3], the “T-ds, pmol excised per min” value was 0 pmol excised per min per mg protein and the “T-ss, pmol excised per min” value is listed as 0 pmol excised per min per mg protein. For the same molecule, in data set [^3H]dUMP-labelled DNA [4], the “Inhibition 5 mM Uracil” value is listed as 80%.

B5: Asp145Asn: human UDG (UNGΔ84) mutant with Asp145 replaced by Asn (protein)
chain: MGVFCLGPWGLGRKLRTPGKGPLQLLSRLCGDHLQAIPAKKAPAGQEEPGTPPSSPLSAEQLDRIQRNKAAALLRLAARNVPVGFGESWKKHLSGEFGKPYFIKLMGFVAEERKHYTVYPPPHQVFTWTQMCDIKDVKVVILGQNPYHGPNQAHGLCFSVQRPVPPPPSLENIYKELSTDIEDFVHPGHGDLSGWAKQGVLLLNAVLTVRAHQANSHKERGWEQFTDAVVSWLNQNSNGLVFLLWGSYAQKKGSAIDRKRHHVLQTAHPSPLSVYRGFFGCRHFSKTNELLQKSGKKPIDWKEL
B5: in data set [^3H]dUMP-labelled DNA [1], the “U-ds, pmol excised per min” value is 1.4 × 10^4 pmol excised per min per mg protein and the “U-ss, pmol excised per min” value is listed as 1.1 × 10^4 pmol excised per min per mg protein. For the same molecule, in data set [2], the “C-ds, pmol excised per min” value is 0 pmol excised per min per mg protein and the “C-ss, pmol excised per min” value was 0 pmol excised per min per mg protein. In addition, in data set [3], the “T-ds, pmol excised per min” value was 0 pmol excised per min per mg protein and the “T-ss, pmol excised per min” value is 0 pmol excised per min per mg protein. The “Inhibition 5 mM Uracil” value in data set [^3H]dUMP-labelled DNA [4] came to 80%.

B6: Gln144Leu: human UDG (UNGΔ84) mutant with Gln144 replaced by Leu (protein)
chain: MGVFCLGPWGLGRKLRTPGKGPLQLLSRLCGDHLQAIPAKKAPAGQEEPGTPPSSPLSAEQLDRIQRNKAAALLRLAARNVPVGFGESWKKHLSGEFGKPYFIKLMGFVAEERKHYTVYPPPHQVFTWTQMCDIKDVKVVILGLDPYHGPNQAHGLCFSVQRPVPPPPSLENIYKELSTDIEDFVHPGHGDLSGWAKQGVLLLNAVLTVRAHQANSHKERGWEQFTDAVVSWLNQNSNGLVFLLWGSYAQKKGSAIDRKRHHVLQTAHPSPLSVYRGFFGCRHFSKTNELLQKSGKKPIDWKEL
As for B6, in data set [^3H]dUMP-labelled DNA [1], the “U-ds, pmol excised per min” value is 3.4 × 10^4 pmol excised per min per mg protein and the “U-ss, pmol excised per min” value was 4.8 × 10^4 pmol excised per min per mg protein. In addition, in data set [2], the “C-ds, pmol excised per min” value is on record as 0 pmol excised per min per mg protein and the “C-ss, pmol excised per min” value was 0 pmol excised per min per mg protein. Moreover, in data set [3], the “T-ds, pmol excised per min” value is 0 pmol excised per min per mg protein and the “T-ss, pmol excised per min” value was 0 pmol excised per min per mg protein. Moreover, the “Inhibition 5 mM Uracil” value in data set [^3H]dUMP-labelled DNA [4] came out at 25%.
